Laboratory results as given in the supplement of paper PMC7877785.
± gives the uncertainty stated by the source.

Assay: self-splicing fitness, log relative to wild type (ln ratio); higher = more splicing; Tetrahymena group I intron in knt gene, E. coli kanamycin selection, DiMSum; sequences stand for … in CUCUCU…GGAGGGAAAAGUUAUCAGGCAUGCACCUGGUAGCUAGUCUUUAAACCAAUAGAUUGCAUCGGUUUAAAAGGCAAGACCGUCAAAUUGCGGGAAAGGGGUCAACAGCCGUUCAGUACCAAGUCUCAGGGGAAACUUUGAGAUGGCCUUGCAAAGGGUAUGGUAAUAAGCUGACGGACAUGGUCCUAACCACGCAGCCAAGUCCUAAGUCAACAGAUCUUCUGUUGAUAUGGAUGCAGUUCACAGACUAAAUGUCGGUCGGGGAAGAUGUAUUCUUCUCAUAAGAUAUAGUCGGACCUCUCCUUAAUGGGAGCUAGCGGAUGAAGUGAUGCAACACUGGAGCCGCUGGGAACUAAUUUGUAUGCGAAAGUAUAUUGAUUAGUUUUGGAGUACUCGUGGUCG
How it was run: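 The eight P1ex-region nucleotides of an intron in the knt kanamycin-resistance gene on pET-22b(+) were all randomised and the library put into E. coli BL21(DE3). Six replicate transformations were grown overnight at 37°C or 30°C on LB agar with or without 25 μg/mL kanamycin, together with 100 μg/mL carbenicillin, 50 μM IPTG and 0.2% rhamnose. Colonies were pooled and amplicon-sequenced on an Illumina HiSeq 2500. Fitness from DiMSum is the error-weighted combination of wild-type-normalised replicate fold changes, kanamycin over none.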

GUUAAGCAAUAUUACGGAUG
self-splicing fitness (ln) (30 °C): -3.1 ± 0.28 | self-splicing fitness (ln) (37 °C): -0.786 ± 0.16

AGUGAGCAAUAUUACGAUAG
self-splicing fitness (ln) (30 °C): -2.34 ± 0.17 | self-splicing fitness (ln) (37 °C): -2.18 ± 0.34

GUAUAGCAAUAUUACGGCUG
self-splicing fitness (ln) (30 °C): -1.2 ± 0.079 | self-splicing fitness (ln) (37 °C): -0.532 ± 0.097

GGGGAGCAAUAUUACGUCUG
self-splicing fitness (ln) (30 °C): -2.55 ± 0.37 | self-splicing fitness (ln) (37 °C): -1.24 ± 0.24

GUGAAGCAAUAUUACGCCUA
self-splicing fitness (ln) (30 °C): -0.415 ± 0.11 | self-splicing fitness (ln) (37 °C): -0.226 ± 0.17

CGUAAGCAAUAUUACGCACG
self-splicing fitness (ln) (30 °C): -1.76 ± 0.14 | self-splicing fitness (ln) (37 °C): -1.06 ± 0.17

CCGAAGCAAUAUUACGUGCU
self-splicing fitness (ln) (30 °C): -4 ± 0.24 | self-splicing fitness (ln) (37 °C): -2.88 ± 0.28

GGGGAGCAAUAUUACGUCCG
self-splicing fitness (ln) (30 °C): -0.963 ± 0.13 | self-splicing fitness (ln) (37 °C): -0.326 ± 0.2

CUAUAGCAAUAUUACGACAG
self-splicing fitness (ln) (30 °C): 0.0925 ± 0.097 | self-splicing fitness (ln) (37 °C): 0.0869 ± 0.11

CUGCAGCAAUAUUACGUGUA
self-splicing fitness (ln) (30 °C): -3.82 ± 0.23 | self-splicing fitness (ln) (37 °C): -2.63 ± 0.16

UUUCAGCAAUAUUACGUCGC
self-splicing fitness (ln) (30 °C): -3.67 ± 0.2 | self-splicing fitness (ln) (37 °C): -2.73 ± 0.24

UACUAGCAAUAUUACGCCUU
self-splicing fitness (ln) (30 °C): -1.93 ± 0.15 | self-splicing fitness (ln) (37 °C): -0.434 ± 0.13

GGGAAGCAAUAUUACGAUUG
self-splicing fitness (ln) (30 °C): -3.59 ± 0.21 | self-splicing fitness (ln) (37 °C): -3.25 ± 0.3

CCACAGCAAUAUUACGCGCG
self-splicing fitness (ln) (30 °C): -1.02 ± 0.042 | self-splicing fitness (ln) (37 °C): -0.161 ± 0.056

CACUAGCAAUAUUACGCGAG
self-splicing fitness (ln) (30 °C): -2.13 ± 0.26 | self-splicing fitness (ln) (37 °C): -1.79 ± 0.17

GGCUAGCAAUAUUACGUUAA
self-splicing fitness (ln) (30 °C): -1.24 ± 0.091 | self-splicing fitness (ln) (37 °C): -0.642 ± 0.12

UGCCAGCAAUAUUACGGACU
self-splicing fitness (ln) (30 °C): -0.709 ± 0.075 | self-splicing fitness (ln) (37 °C): 0.139 ± 0.089

ACGUAGCAAUAUUACGUUAU
self-splicing fitness (ln) (30 °C): -3.76 ± 0.17 | self-splicing fitness (ln) (37 °C): -2.34 ± 0.16

CAUCAGCAAUAUUACGAAAC
self-splicing fitness (ln) (30 °C): -3.66 ± 0.47 | self-splicing fitness (ln) (37 °C): -3.45 ± 0.32

UCUGAGCAAUAUUACGACUG
self-splicing fitness (ln) (30 °C): -3.15 ± 0.27 | self-splicing fitness (ln) (37 °C): -2.26 ± 0.28

UCAAAGCAAUAUUACGAUUA
self-splicing fitness (ln) (30 °C): -1.26 ± 0.11 | self-splicing fitness (ln) (37 °C): -1.16 ± 0.12

GCCGAGCAAUAUUACGUGAA
self-splicing fitness (ln) (30 °C): -1.74 ± 0.076 | self-splicing fitness (ln) (37 °C): -0.417 ± 0.092

ACUGAGCAAUAUUACGAGUC
self-splicing fitness (ln) (30 °C): -3.18 ± 0.23 | self-splicing fitness (ln) (37 °C): -3.2 ± 0.28

ACCGAGCAAUAUUACGAGUU
self-splicing fitness (ln) (30 °C): -3.25 ± 0.14 | self-splicing fitness (ln) (37 °C): -2.87 ± 0.15

AGAGAGCAAUAUUACGGUCG
self-splicing fitness (ln) (30 °C): -3.33 ± 0.35 | self-splicing fitness (ln) (37 °C): -1.63 ± 0.35

AAGAAGCAAUAUUACGGAGA
self-splicing fitness (ln) (30 °C): -3.38 ± 0.19 | self-splicing fitness (ln) (37 °C): -2.62 ± 0.2

GGAAAGCAAUAUUACGUUGA
self-splicing fitness (ln) (30 °C): -2.31 ± 0.081 | self-splicing fitness (ln) (37 °C): -1.27 ± 0.084

ACAAAGCAAUAUUACGCUCC
self-splicing fitness (ln) (30 °C): -1.29 ± 0.16 | self-splicing fitness (ln) (37 °C): -0.526 ± 0.17

UGCAAGCAAUAUUACGUGGU
self-splicing fitness (ln) (30 °C): -4.13 ± 0.17 | self-splicing fitness (ln) (37 °C): -2.84 ± 0.16

GUCAAGCAAUAUUACGAGAA
self-splicing fitness (ln) (30 °C): -3.59 ± 0.36 | self-splicing fitness (ln) (37 °C): -1.83 ± 0.2

UUGCAGCAAUAUUACGAAUA
self-splicing fitness (ln) (30 °C): -1.66 ± 0.1 | self-splicing fitness (ln) (37 °C): -0.197 ± 0.13

AAAAAGCAAUAUUACGUUUA
self-splicing fitness (ln) (30 °C): -1.4 ± 0.1 | self-splicing fitness (ln) (37 °C): -0.799 ± 0.091

UGCUAGCAAUAUUACGCCCA
self-splicing fitness (ln) (30 °C): 0.275 ± 0.1 | self-splicing fitness (ln) (37 °C): 0.384 ± 0.13

CGUAAGCAAUAUUACGUUGA
self-splicing fitness (ln) (30 °C): -3.23 ± 0.19 | self-splicing fitness (ln) (37 °C): -2.58 ± 0.18

GUAUAGCAAUAUUACGGCGC
self-splicing fitness (ln) (30 °C): -0.053 ± 0.11 | self-splicing fitness (ln) (37 °C): -0.157 ± 0.12

ACAAAGCAAUAUUACGGAUU
self-splicing fitness (ln) (30 °C): -2.49 ± 0.085 | self-splicing fitness (ln) (37 °C): -0.946 ± 0.081

AGCGAGCAAUAUUACGUGUG
self-splicing fitness (ln) (30 °C): -3.86 ± 0.22 | self-splicing fitness (ln) (37 °C): -2.88 ± 0.17
